# Measured values from patent US20230265201A1 (published 2023).
# Residue numbers refer to the chain shown, from its start.
# B1: SGN70 mAb (antibody, INN chains, looked up, V domains shown)
# VH: QVQLVQSGAEVKKPGASVKVSCKASGYTFTNYGMNWVRQAPGQGLKWMGWINTYTGEPTYADAFKGRVTMTRDTSISTAYMELSRLRSDDTAVYYCARDYGDYGMDYWGQGTTVTVSS
# VL: DIVMTQSPDSLAVSLGERATINCRASKSVSTSGYSFMHWYQQKPGQPPKLLIYLASNLESGVPDRFSGSGSGTDFTLTISSLQAEDVAVYYCQHSREVPWTFGQGTKVEIK
# B2: ARGX-110 (non-fucosylated human IgG1 of germlined 27B3 clone 41D12) (antibody, V domains shown)
# VH: EVQLVESGGGLVQPGGSLRLSCAASGFTFSVYYMNWVRQAPGKGLEWVSDINNEGGTTYYADSVKGRFTISRDNSKNSLYLQMNSLRAEDTAVYYCARDAGYSNHVPIFDSWGQGTLVTVSS
# VL: QAVVTQEPSLTVSPGGTVTLTCGLKSGSVTSDNFPTWYQQTPGQAPRLLIYNTNTRHSGVPDRFSGSILGNKAALTITGAQADDEAEYFCALFISNPSVEFGGGTQLTVLG
# notes: also called ARGX-100; 41D12 (ARGX-110)
# B3: 27B3 chimeric llama-human mAb (antibody, V domains shown)
# VH: B2 VH with S75A, S78T, Y80T, R87K, A88P, V93L, A97V, L117Q, T119I, S121A
# VL: B2 VL with D32T, D62S, L69S, G70E, A82P, D83E, G111S
# notes: also called SIMPLE antibody 27B3; mAb 27B3
# B4: 59D10 Fab (Fab, V domains shown)
# VH: EVQLVESGGGLVQPGGSLRLSCAASELSFSISEMTWVRQAPGKGLEWVSGISGVTGGSSTSYADSVKGRFTISRDNDKNTLYLQMNSLIPEDTAVYYCATTSGTYYFIPEYEYWGQGTQVTVSS
# VL: QSVLTQPPSVSGSPGKTVTISCAGTSSDVGYGYYVSWYQQFPGMAPKLLIYDVNKRASGIADRFSGSKAGNTASLTISGLQSEDEADYYCASYRSSANAVFGGGTHLTVLG
# notes: Llama-derived Fab from phage display; MYC tag at C-terminus of Fd
# Assays:
# [1] = target: T1, recombinant human CD70 (Flag-TNC-CD70) (human, UniProt P32970 39-193); assay: inhibition ELISA: CD27-Fc binding to anti-Flag-captured Flag-TNC-CD70
# T1 construct: extracellular domain; also called recombinant CD70; human Flag-TNC-CD70; not shown: Flag tag and TNC trimerisation domain
# T1 sequence (looked up): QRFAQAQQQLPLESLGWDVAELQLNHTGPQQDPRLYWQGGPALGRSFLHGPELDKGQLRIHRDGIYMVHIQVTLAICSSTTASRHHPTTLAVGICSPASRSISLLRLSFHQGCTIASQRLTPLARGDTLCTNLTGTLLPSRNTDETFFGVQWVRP
# Description: From selected phage transfected into TG1, individual colonies were picked randomly for growth in 96 well plates. After IPTG induction according to standard protocols periplasmic fractions (peris) containing Fabs were prepared. […] In this assay, Flag-TNC-CD70 is captured by an anti-Flag mAb and binding of CD27-Fc is detected via a biotinylated anti-CD27 mAb and strep-HRP in the absence or presence of CD70 Fabs (FIGS. 2 and 3) or CD70 mAbs (FIG. 4). In FIG. 2B it can be seen that 27B3, which has an identical VH as 9D1, but contains a somewhat different light chain, seems to block binding of CD27 to CD70 more efficiently, which was in line with the better off rate of this Fab as measured on Biacore (data not shown). Table 3 indicates the blocking potency (expressed as IC50) for the various llama-human chimeric mAbs tested in the CD70 inhibition ELISA. […] FIG. 3 is a composite of an experiment testing llama CD70 Fabs for blocking activity (in the inhibition ELISA, see white bars) and for CD70 binding (binding ELISA, black bars). For the binding ELISA, Flag-TNC-CD70 is captured by an anti-Flag mAb and binding of the Fabs is detected using an anti-myc-HRP mAb, which recognizes the MYC tag fused to the C-terminus of the Fd fragment. […]
# [2] = target: T1, recombinant human CD70 (Flag-TNC-CD70); assay: blocking ELISA of Example 19: CD27 Fc chimera on anti-Flag-captured Flag-TNC-CD70
# [3] = target: T2, rhesus recombinant CD70 (FLAG-TNC-rhesus CD70) (rhesus macaque (Macaca mulatta)) (UniProt F7GPA5); assay: CD27-CD70 inhibition ELISA, rhesus Flag-TNC-CD70
# T2 sequence: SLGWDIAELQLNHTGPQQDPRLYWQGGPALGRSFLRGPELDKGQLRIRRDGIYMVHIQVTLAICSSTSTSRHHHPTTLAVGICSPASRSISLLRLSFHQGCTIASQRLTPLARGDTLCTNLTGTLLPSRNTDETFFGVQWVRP
# [4] = target: T3, human CD70 on the surface of cells (human, UniProt P32970 1-193); assay: cell-based or functional assay
# T3 sequence (looked up): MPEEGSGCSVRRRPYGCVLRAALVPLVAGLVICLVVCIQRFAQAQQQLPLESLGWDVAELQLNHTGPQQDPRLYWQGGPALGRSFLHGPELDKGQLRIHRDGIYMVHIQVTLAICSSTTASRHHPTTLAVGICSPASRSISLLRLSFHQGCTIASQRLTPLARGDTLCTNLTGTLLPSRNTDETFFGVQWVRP
# [5] = target: T1, recombinant human CD70 (Flag-TNC-CD70); assay: CD27-CD70 inhibition ELISA, human Flag-TNC-CD70
# [6] = target: cynomolgus monkey Flag-TNC-CD70 (cynomolgus monkey); assay: CD27-CD70 inhibition ELISA, cynomolgus Flag-TNC-CD70
# [7] = target: T4, rhesus recombinant CD70 (FLAG-TNC-rhesus CD70) (rhesus macaque (Macaca mulatta), UniProt F7GPA5 174-316); assay: CD27-CD70 inhibition ELISA, rhesus Flag-TNC-CD70
# T4 construct: also called rhesus Flag-TNC-CD70; Rhesus monkey; not shown: Flag tag and TNC trimerisation domain
# T4 sequence: T2 sequence
# Description: In this assay, a microtiter plate (Nunc Maxisorb) was first coated with 100 µl anti-FLAG M2 monoclonal antibody (Sigma Aldrich, F3165) at 1250-fold dilution in PBS (to achieve a final concentration of approximately 3.5 µg/ml) overnight at 4° C. The plate was washed once with PBS-Tween and incubated at RT for 2 hours with 300 µl PBS-1% casein. The plate was washed a further three times with PBS-Tween. 100 µl of 5 ng/ml (80 pM) Flag-TNC-CD70 (The Journal of Immunology, 2009, 183: 1851-1861) diluted in PBS-0.1% casein was added to the plate and incubated at RT for 1 hour while shaking. The plate was washed five times with PBS-Tween. The CD70 mAb to be tested was added to the plate; various concentrations were achieved by diluting the stock antibody solution in PBS-0.1% casein. Immediately thereafter, 50 µl of 1 µg/ml (final concentration 6.5 nM) recombinant human CD27 Fc chimera (R&D systems 382-CD, MW = 46.5 kDa) was added, and incubated at RT for 1 hour while shaking. The plate was washed five times with PBS Tween. 100 µl of biotinylated anti-CD27 (eBioscience 13-0271), diluted 500-fold in PBS-0.1% casein, was added, and the plate incubated at RT for a further hour, while shaking. The plate was washed five times with PBS Tween. […] 100 µl TMB was added to the plate and the OD at 620 nm was measured. […]
# [8] = target: T4, rhesus recombinant CD70 …; assay: inhibition ELISA: CD27 binding to FLAG-TNC-rhesus CD70
# Source text: In this assay, Flag-TNC-CD70 is captured by an anti-Flag mAb and binding of CD27-Fc is detected via a biotinylated anti-CD27 mAb and strep-HRP in the absence or presence of CD70 Fabs (FIGS. 2 and 3) or CD70 mAbs (FIG. 4). In FIG. 2B it can be seen that 27B3, which has an identical VH as 9D1, but contains a somewhat different light chain, seems to block binding of CD27 to CD70 more efficiently, which was in line with the better off rate of this Fab as measured on Biacore (data not shown). Table 3 indicates the blocking potency (expressed as IC50) for the various llama-human chimeric mAbs tested in the CD70 inhibition ELISA. […] FIG. 3 is a composite of an experiment testing llama CD70 Fabs for blocking activity (in the inhibition ELISA, see white bars) and for CD70 binding (binding ELISA, black bars). For the binding ELISA, Flag-TNC-CD70 is captured by an anti-Flag mAb and binding of the Fabs is detected using an anti-myc-HRP mAb, which recognizes the MYC tag fused to the C-terminus of the Fd fragment. For comparison purposes, known monoclonal antibodies to CD70 (SGN70 described in US 2010/0129362 A1, clone 1F6; and MDX69A7 described in WO2008/074004FIGS. 5A and 5B) were tested in parallel. […] Of interest is clone 59D10, which as Fab has no blocking activity, but when converted into a chimeric IgG was antagonistic (see Table 3). […]
# [9] = target: T4, rhesus recombinant CD70 …; assay: Biacore off-rate, Fab over immobilised rhesus CD70
binder,measurement,setting,value
B1,IC50,[1],0.33 µg/mL
same,IC50,[2],4.97 µg/mL
same,IC50,[3],0.178 µg/mL
same,"IC50 of IL-8 secretion, Raji / HT1080-CD27 co-culture",[4],0.055 µg/mL
same,IC50,[5],0.054 µg/mL
same,IC50,[6],0.112 µg/mL
B2,IC50,[7],0.075 µg/mL
same,IC50,[6],0.048 µg/mL
B3,Raji co-culture assay IC50 relative to 27B3,[4],1 fold relative to 27B3
same,IC50,[8],0.15 µg/mL
B4,binding result,[9],no binding
